# Data published in ChEMBL document CHEMBL1152693, “A rapid method for generation of selective Sox-based chemosensors of Ser/Thr kinases using combinatorial peptide libraries” (Bioorg Med Chem Lett, 2009).
# B1: Aurora kinase A (Homo sapiens), O14965 (protein)
# chain: MDRSKENCISGPVKATAPVGGPKRVLVTQQFPCQNPLPVNSGQAQRVLCPSNSSQRIPLQAQKLVSSHKPVQNQKQKQLQATSVPHPVSRPLNNTQKSKQPLPSAPENNPEEELASKQKNEESKKRQWALEDFEIGRPLGKGKFGNVYLAREKQSKFILALKVLFKAQLEKAGVEHQLRREVEIQSHLRHPNILRLYGYFHDATRVYLILEYAPLGTVYRELQKLSKFDEQRTATYITELANALSYCHSKRVIHRDIKPENLLLGSAGELKIADFGWSVHAPSSRRTTLCGTLDYLPPEMIEGRMHDEKVDLWSLGVLCYEFLVGKPPFEANTYQETYKRISRVEFTFPDFVTEGARDLISRLLKHNPSQRPMLREVLEHPWITANSSKPSNCQNKESASKQS
# Columns and labels:
# [1] = substrate: CC(=O)N[C@@H](C)C(=O)N[C@@H](CC(C)C)C(=O)N[C@@H](CCCNC(=N)N)C(=O)N[C@@H](CCCNC(=N)N)C(=O)N[C@@H](C)C(=O)N[C@@H](CO)C(=O)N[C@@H](CC(C)C)C(=O)N[C@@H](CSCc1ccc2c(S(=O)(=O)N(C)C)ccc(O)c2n1)C(=O)N[C@@H](C)C(=O)N[C@@H](C)C(N)=O; assay: (§1) Ratio of Kcat to Km for Aurora A
# [2] = substrate: CC(=O)N[C@@H](C)C(=O)NCC(=O)N[C@@H](CCCNC(=N)N)C(=O)N[C@@H](CCCNC(=N)N)C(=O)N[C@@H](Cc1ccc(O)cc1)C(=O)N[C@@H](CO)C(=O)N[C@@H](CC(C)C)C(=O)N[C@@H](CSCc1ccc2c(S(=O)(=O)N(C)C)ccc(O)c2n1)C(=O)N[C@H](C)C(=O)N[C@@H](C)C(N)=O; assay: as §1
# [3] = substrate: CC(=O)N[C@@H](C)C(=O)N[C@@H](CC(C)C)C(=O)N[C@@H](CCCNC(=N)N)C(=O)N[C@@H](CCCNC(=N)N)C(=O)N[C@@H](Cc1ccccc1)C(=O)N[C@@H](CO)C(=O)N[C@@H](CC(C)C)C(=O)N[C@@H](CSCc1ccc2c(S(=O)(=O)N(C)C)ccc(O)c2n1)C(=O)N[C@@H](C)C(=O)N[C@@H](C)C(N)=O; assay: as §1
# [4] = substrate: CC(=O)N[C@@H](C)C(=O)N[C@@H](CC(C)C)C(=O)N[C@@H](CCCNC(=N)N)C(=O)N[C@@H](CCCNC(=N)N)C(=O)N[C@@H](Cc1ccccc1)C(=O)N[C@@H](CO)C(=O)N[C@@H](CC(C)C)C(=O)N[C@@H](CSCc1ccc2c(S(=O)(=O)N(C)C)ccc(O)c2n1)C(=O)NCC(=O)N[C@@H](C)C(N)=O; assay: as §1
# [5] = substrate: CC(=O)N[C@@H](C)C(=O)N[C@@H](CC(C)C)C(=O)N[C@@H](CCCNC(=N)N)C(=O)N[C@@H](CCCNC(=N)N)C(=O)N[C@@H](C)C(=O)N[C@@H](CO)C(=O)N[C@@H](CC(C)C)C(=O)N[C@@H](CSCc1ccc2c(S(=O)(=O)N(C)C)ccc(O)c2n1)C(=O)N[C@@H](C)C(=O)N[C@@H](C)C(N)=O; assay: (§2) Activity of Aurora A
# [6] = substrate: CC(=O)N[C@@H](C)C(=O)NCC(=O)N[C@@H](CCCNC(=N)N)C(=O)N[C@@H](CCCNC(=N)N)C(=O)N[C@@H](Cc1ccc(O)cc1)C(=O)N[C@@H](CO)C(=O)N[C@@H](CC(C)C)C(=O)N[C@@H](CSCc1ccc2c(S(=O)(=O)N(C)C)ccc(O)c2n1)C(=O)N[C@H](C)C(=O)N[C@@H](C)C(N)=O; assay: as §2
# [7] = substrate: CC(=O)N[C@@H](C)C(=O)N[C@@H](CC(C)C)C(=O)N[C@@H](CCCNC(=N)N)C(=O)N[C@@H](CCCNC(=N)N)C(=O)N[C@@H](Cc1ccccc1)C(=O)N[C@@H](CO)C(=O)N[C@@H](CC(C)C)C(=O)N[C@@H](CSCc1ccc2c(S(=O)(=O)N(C)C)ccc(O)c2n1)C(=O)N[C@@H](C)C(=O)N[C@@H](C)C(N)=O; assay: as §2
# [8] = substrate: CC(=O)N[C@@H](C)C(=O)N[C@@H](CC(C)C)C(=O)N[C@@H](CCCNC(=N)N)C(=O)N[C@@H](CCCNC(=N)N)C(=O)N[C@@H](Cc1ccccc1)C(=O)N[C@@H](CO)C(=O)N[C@@H](CC(C)C)C(=O)N[C@@H](CSCc1ccc2c(S(=O)(=O)N(C)C)ccc(O)c2n1)C(=O)NCC(=O)N[C@@H](C)C(N)=O; assay: as §2
protein,measurement,setting,value
B1,kcat/Km,[1],16700 M⁻¹ s⁻¹
same,kcat/Km,[2],83300 M⁻¹ s⁻¹
same,kcat/Km,[3],50000 M⁻¹ s⁻¹
same,kcat/Km,[4],117000 M⁻¹ s⁻¹
same,Km,[5],298 µM
same,Vmax,[5],1.7 µmol/min/mg
same,Km,[6],65 µM
same,Vmax,[6],1.8 µmol/min/mg
same,Km,[7],152 µM
same,Vmax,[7],2.6 µmol/min/mg
same,Km,[8],57.1 µM
same,Vmax,[8],2.2 µmol/min/mg
